Results as given in patent US20180185467A1 (Harvard, published 2018).

Target: T1, GST-NS3 of YFV (strain 17D) (Yellow Fever virus, strain 17D, UniProt P03314 1485-2107)
T1 construct: domain: NS3; also called YFV NS3; NS3 of Yellow Fever virus
T1 sequence: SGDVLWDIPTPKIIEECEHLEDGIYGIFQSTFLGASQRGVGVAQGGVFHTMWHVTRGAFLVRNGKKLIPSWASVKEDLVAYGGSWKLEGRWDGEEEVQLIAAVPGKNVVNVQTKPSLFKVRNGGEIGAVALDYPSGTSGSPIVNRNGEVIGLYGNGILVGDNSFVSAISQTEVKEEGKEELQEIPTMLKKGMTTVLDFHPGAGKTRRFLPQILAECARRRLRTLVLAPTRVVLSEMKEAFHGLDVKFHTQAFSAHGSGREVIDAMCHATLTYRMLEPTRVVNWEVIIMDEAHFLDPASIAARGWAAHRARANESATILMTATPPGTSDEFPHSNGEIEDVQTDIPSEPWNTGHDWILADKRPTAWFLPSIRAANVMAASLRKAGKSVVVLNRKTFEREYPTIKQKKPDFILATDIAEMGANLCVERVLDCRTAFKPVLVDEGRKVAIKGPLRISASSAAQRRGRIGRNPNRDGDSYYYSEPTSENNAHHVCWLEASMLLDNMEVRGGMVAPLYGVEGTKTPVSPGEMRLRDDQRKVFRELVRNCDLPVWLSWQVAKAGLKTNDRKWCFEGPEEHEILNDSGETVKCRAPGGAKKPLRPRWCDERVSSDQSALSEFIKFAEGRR
Test: GST pull-down in 293T cells, immunoblot with anti-14-3-3ε

B1: endogenous 14-3-3ε (other)
chain: MDDREDLVYQAKLAEQAERYDEMVESMKKVAGMDVELTVEERNLLSVAYKNVIGARRASWRIISSIEQKEENKGGEDKLKMIREYRQMVETELKLICCDILDVLDKHLIPAANTGESKVFYYKMKGDYHRYLAEFATGNDRKEAAENSLVAYKAASDIAMTELPPTHPIRLGLALNFSVFYYEILNSPDRACRLAKAAFDDAIAELDTLSEESYKDSTLIMQLLRDNLTLWTSDMQGDGEEQNKEALQDVEDENQ
B1: no binding.
